Laboratory results from IntAct's records for PubMed 31515488.

B1: Keratin, type II cytoskeletal 6A (Homo sapiens), P02538 (parent)
chain: MASTSTTIRSHSSSRRGFSANSARLPGVSRSGFSSVSVSRSRGSGGLGGACGGAGFGSRSLYGLGGSKRISIGGGSCAISGGYGSRAGGSYGFGGAGSGFGFGGGAGIGFGLGGGAGLAGGFGGPGFPVCPPGGIQEVTVNQSLLTPLNLQIDPTIQRVRAEEREQIKTLNNKFASFIDKVRFLEQQNKVLETKWTLLQEQGTKTVRQNLEPLFEQYINNLRRQLDSIVGERGRLDSELRGMQDLVEDFKNKYEDEINKRTAAENEFVTLKKDVDAAYMNKVELQAKADTLTDEINFLRALYDAELSQMQTHISDTSVVLSMDNNRNLDLDSIIAEVKAQYEEIAQRSRAEAESWYQTKYEELQVTAGRHGDDLRNTKQEIAEINRMIQRLRSEIDHVKKQCANLQAAIADAEQRGEMALKDAKNKLEGLEDALQKAKQDLARLLKEYQELMNVKLALDVEIATYRKLLEGEECRLNGEGVGQVNISVVQSTVSSGYGGASGVGSGLGLGGGSSYSYGSGLGVGGGFSSSSGRAIGGGLSSVGGGSSTIKYTTTSSSSRKSYKH
B2: Isoform 1 of Mothers against decapentaplegic homolog 3 (Homo sapiens), P84022-1 (parent)
chain: MSSILPFTPPIVKRLLGWKKGEQNGQEEKWCEKAVKSLVKKLKKTGQLDELEKAITTQNVNTKCITIPRSLDGRLQVSHRKGLPHVIYCRLWRWPDLHSHHELRAMELCEFAFNMKKDEVCVNPYHYQRVETPVLPPVLVPRHTEIPAEFPPLDDYSHSIPENTNFPAGIEPQSNIPETPPPGYLSEDGETSDHQMNHSMDAGSPNLSPNPMSPAHNNLDLQPVTYCEPAFWCSISYYELNQRVGETFHASQPSMTVDGFTDPSNSERFCLGLLSNVNRNAAVELTRRHIGRGVRLYYIGGEVFAECLSDSAIFVQSPNCNQRYGWHPATVCKIPPGCNLKIFNNQEFAALLAQSVNQGFEAVYQLTRMCTIRMSFVKGWGAEYRRQTVTSTPCWIELHLNGPLQWLDKVLTQMGSPSIRCSSVS
partner: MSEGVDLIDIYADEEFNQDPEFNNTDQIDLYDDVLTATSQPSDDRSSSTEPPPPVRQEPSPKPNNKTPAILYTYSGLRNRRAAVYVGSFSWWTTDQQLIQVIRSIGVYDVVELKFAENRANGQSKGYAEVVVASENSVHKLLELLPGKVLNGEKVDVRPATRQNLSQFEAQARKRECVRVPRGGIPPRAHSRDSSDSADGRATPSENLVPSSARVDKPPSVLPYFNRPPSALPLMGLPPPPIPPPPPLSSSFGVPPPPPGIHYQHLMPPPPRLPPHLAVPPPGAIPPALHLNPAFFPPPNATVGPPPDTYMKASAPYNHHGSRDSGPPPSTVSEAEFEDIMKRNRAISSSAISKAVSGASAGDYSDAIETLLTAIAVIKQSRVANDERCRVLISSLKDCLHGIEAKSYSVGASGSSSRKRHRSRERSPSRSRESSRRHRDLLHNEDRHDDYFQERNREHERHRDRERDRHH
B3: Glycolipid transfer protein (Homo sapiens), Q9NZD2 (parent)
chain: MALLAEHLLKPLPADKQIETGPFLEAVSHLPPFFDCLGSPVFTPIKADISGNITKIKAVYDTNPAKFRTLQNILEVEKEMYGAEWPKVGATLALMWLKRGLRFIQVFLQSICDGERDENHPNLIRVNATKAYEMALKKYHGWIVQKIFQAALYAAPYKSDFLKALSKGQNVTEEECLEKIRLFLVNYTATIDVIYEMYTQMNAELNYKV
partner: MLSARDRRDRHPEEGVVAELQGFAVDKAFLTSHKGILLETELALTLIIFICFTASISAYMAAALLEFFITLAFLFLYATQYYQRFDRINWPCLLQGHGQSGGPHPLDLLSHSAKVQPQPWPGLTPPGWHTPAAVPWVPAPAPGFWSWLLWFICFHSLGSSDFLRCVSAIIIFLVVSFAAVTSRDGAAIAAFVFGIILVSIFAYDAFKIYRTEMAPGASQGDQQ
B4: Aflatoxin B1 aldehyde reductase member 2 (Homo sapiens), O43488 (parent)
chain: MLSAASRVVSRAAVHCALRSPPPEARALAMSRPPPPRVASVLGTMEMGRRMDAPASAAAVRAFLERGHTELDTAFMYSDGQSETILGGLGLGLGGGDCRVKIATKANPWDGKSLKPDSVRSQLETSLKRLQCPQVDLFYLHAPDHGTPVEETLHACQRLHQEGKFVELGLSNYASWEVAEICTLCKSNGWILPTVYQGMYNATTRQVETELFPCLRHFGLRFYAYNPLAGGLLTGKYKYEDKDGKQPVGRFFGNSWAETYRNRFWKEHHFEAIALVEKALQAAYGASAPSVTSAALRWMYHHSQLQGAHGDAVILGMSSLEQLEQNLAATEEGPLEPAVVDAFNQAWHLVAHECPNYFR
partner: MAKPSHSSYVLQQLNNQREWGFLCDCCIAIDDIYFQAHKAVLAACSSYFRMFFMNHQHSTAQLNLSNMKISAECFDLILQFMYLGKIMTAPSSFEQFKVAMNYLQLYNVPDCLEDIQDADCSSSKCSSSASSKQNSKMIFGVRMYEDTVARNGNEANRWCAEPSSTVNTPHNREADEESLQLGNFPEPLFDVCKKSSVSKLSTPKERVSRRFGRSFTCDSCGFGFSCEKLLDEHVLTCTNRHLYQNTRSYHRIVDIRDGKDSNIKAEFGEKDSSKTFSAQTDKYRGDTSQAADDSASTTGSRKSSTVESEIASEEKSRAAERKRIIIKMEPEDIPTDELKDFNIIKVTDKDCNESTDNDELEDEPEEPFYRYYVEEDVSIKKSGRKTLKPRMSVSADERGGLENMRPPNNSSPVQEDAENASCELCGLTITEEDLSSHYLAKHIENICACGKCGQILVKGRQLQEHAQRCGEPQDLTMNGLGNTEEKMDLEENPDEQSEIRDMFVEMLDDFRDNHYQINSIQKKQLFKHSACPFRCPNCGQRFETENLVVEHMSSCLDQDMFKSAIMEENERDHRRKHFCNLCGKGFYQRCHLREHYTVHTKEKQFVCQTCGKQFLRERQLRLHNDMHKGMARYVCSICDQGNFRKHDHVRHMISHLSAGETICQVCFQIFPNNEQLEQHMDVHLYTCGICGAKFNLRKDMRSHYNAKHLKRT
B5: Protein FAM9B (Homo sapiens), Q8IZU0 (parent)
chain: MAAWGKKHAGKDPVRDECEERNRFTETREEDVTDEHGEREPFAETDEHTGANTKKPEDTAEDLTAKRKRMKMDKTCSKTKNKSKHALRKKQLKRQKRDYIHSLKLLNVLEEYITDEQKEEEEEEGEEEELIRIFQEQQKKWQQYRSVRRERLKEMKLLRDQFVKALEDFEDLCDRVFSDEDSELDN
partner: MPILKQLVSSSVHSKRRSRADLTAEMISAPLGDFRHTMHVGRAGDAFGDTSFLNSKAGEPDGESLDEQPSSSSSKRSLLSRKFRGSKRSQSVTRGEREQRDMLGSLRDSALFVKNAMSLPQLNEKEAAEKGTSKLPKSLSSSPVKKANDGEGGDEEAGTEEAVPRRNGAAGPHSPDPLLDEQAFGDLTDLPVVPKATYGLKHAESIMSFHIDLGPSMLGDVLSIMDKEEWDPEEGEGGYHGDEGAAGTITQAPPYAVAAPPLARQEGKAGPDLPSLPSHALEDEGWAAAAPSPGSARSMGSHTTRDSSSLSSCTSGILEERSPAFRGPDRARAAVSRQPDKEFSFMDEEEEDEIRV
B6: Myosin light polypeptide 6 (Homo sapiens), P60660 (parent)
chain: MCDFTEDQTAEFKEAFQLFDRTGDGKILYSQCGDVMRALGQNPTNAEVLKVLGNPKSDEMNVKVLDFEHFLPMLQTVAKNKDQGTYEDYVEGLRVFDKEGNGTVMGAEIRHVLVTLGEKMTEEEVEMLVAGHEDSNGCINYEAFVRHILSG
B7: Protein FAM9B (Homo sapiens), Q8IZU0 (parent)
chain: B5 chain
partner: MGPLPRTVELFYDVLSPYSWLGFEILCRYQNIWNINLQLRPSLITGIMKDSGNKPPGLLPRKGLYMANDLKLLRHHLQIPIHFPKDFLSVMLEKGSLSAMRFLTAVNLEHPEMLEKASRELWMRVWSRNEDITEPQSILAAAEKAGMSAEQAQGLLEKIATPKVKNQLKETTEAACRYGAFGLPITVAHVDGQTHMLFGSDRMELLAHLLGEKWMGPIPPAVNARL
B8: G protein pathway suppressor 2 (Homo sapiens), Q13227 (parent)
chain: MPALLERPKLSNAMARALHRHIMMERERKRQEEEEVDKMMEQKMKEEQERRKKKEMEERMSLEETKEQILKLEEKLLALQEEKHQLFLQLKKVLHEEEKRRRKEQSDLTTLTSAAYQQSLTVHTGTHLLSMQGSPGGHNRPGTLMAADRAKQMFGPQVLTTRHYVGSAAAFAGTPEHGQFQGSPGGAYGTAQPPPHYGPTQPAYSPSQQLRAPSAFPAVQYLSQPQPQPYAVHGHFQPTQTGFLQPGGALSLQKQMEHANQQTGFSDSSSLRPMHPQALHPAPGLLASPQLPVQMQPAGKSGFAATSQPGPRLPFIQHSQNPRFYHK
partner: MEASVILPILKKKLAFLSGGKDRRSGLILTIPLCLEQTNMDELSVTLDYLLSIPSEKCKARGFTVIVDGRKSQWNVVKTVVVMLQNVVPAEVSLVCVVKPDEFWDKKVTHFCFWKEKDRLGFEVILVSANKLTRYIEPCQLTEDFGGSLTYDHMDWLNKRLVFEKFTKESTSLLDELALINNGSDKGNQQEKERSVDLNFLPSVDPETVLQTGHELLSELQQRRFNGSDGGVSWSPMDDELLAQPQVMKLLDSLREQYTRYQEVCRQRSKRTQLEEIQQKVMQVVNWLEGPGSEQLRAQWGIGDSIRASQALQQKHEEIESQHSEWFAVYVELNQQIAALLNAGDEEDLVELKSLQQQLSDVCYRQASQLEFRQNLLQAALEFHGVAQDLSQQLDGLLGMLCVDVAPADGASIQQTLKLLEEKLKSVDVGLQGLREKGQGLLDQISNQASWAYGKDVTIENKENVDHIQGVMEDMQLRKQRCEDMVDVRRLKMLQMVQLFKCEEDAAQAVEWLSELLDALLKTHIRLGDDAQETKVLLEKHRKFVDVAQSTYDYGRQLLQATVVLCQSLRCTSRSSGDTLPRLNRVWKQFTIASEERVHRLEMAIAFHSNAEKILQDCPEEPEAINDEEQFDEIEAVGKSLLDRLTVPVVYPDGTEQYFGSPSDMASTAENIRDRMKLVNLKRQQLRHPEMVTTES

Variants of: B1
Conditions: with KRT17, Q04695
Chain of KRT17, Q04695 (Q04695 whole entry): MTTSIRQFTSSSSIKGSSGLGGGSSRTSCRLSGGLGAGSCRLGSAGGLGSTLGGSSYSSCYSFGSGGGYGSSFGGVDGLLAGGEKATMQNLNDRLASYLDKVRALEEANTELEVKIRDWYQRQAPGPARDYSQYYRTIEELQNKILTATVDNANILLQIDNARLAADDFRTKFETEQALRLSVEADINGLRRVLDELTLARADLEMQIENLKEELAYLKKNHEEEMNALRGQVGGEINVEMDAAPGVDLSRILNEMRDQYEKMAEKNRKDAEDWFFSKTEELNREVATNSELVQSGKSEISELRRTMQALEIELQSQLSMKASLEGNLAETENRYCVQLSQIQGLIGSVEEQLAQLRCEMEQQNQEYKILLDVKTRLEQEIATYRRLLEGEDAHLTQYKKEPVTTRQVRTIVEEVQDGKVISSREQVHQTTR

**Q.** For R559G, which “effect of a mutation on the interaction” value is on record?
**A.** with no effect

Variants of: B1
Conditions: with tfp11_human TFIP11, Q9UBB9
Chain of tfp11_human TFIP11, Q9UBB9 (Q9UBB9 whole entry): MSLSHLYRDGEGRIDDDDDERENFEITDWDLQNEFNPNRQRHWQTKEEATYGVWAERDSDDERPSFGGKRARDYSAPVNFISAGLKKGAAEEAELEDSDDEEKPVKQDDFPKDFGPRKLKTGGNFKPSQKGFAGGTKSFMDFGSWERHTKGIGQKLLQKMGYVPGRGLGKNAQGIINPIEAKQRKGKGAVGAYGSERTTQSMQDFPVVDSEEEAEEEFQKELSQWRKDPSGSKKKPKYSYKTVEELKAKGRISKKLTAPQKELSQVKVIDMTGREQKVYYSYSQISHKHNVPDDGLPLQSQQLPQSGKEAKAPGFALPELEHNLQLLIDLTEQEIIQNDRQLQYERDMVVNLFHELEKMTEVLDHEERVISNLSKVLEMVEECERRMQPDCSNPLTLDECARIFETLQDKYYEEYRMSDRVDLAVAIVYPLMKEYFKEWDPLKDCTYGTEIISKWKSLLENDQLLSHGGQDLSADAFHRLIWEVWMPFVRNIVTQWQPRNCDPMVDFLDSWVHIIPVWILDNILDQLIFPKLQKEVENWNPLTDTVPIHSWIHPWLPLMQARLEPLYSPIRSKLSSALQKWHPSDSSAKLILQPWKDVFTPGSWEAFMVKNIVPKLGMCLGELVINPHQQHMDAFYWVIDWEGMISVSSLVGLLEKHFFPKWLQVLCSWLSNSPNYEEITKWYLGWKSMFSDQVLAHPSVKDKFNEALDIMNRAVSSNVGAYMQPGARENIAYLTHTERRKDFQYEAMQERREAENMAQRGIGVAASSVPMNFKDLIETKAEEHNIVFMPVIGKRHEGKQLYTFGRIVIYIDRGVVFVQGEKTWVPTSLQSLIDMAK

**Q.** How did the “effect of a mutation on the interaction” value turn out when R559G was run?
**A.** with no effect

Variants of: B1
Conditions: with KRT15, P19012
Chain of KRT15, P19012 (P19012 whole entry): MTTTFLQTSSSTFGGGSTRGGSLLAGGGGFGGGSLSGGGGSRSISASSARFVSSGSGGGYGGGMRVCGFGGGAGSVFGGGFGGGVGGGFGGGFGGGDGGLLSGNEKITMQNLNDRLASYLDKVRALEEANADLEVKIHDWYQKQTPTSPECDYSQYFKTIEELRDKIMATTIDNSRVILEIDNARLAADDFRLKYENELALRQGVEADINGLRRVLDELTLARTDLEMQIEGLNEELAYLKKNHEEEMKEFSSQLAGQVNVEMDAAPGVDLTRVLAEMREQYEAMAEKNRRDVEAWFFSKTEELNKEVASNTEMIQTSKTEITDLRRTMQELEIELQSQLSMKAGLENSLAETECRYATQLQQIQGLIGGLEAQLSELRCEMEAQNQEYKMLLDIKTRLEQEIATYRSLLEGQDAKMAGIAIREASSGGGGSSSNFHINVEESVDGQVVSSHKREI

**Q.** Which “effect of a mutation on the interaction” value does the source give for R559G here?
**A.** with no effect

Variants of: B2
Conditions: with cpsf7_human CPSF7, Q8N684

**Q.** How did the “effect of a mutation on the interaction” value turn out when P393L was run?
**A.** disrupting interaction strength

Variants of: B3
Conditions: with cklf5_human CMTM5, Q96DZ9

**Q.** Which “effect of a mutation on the interaction” value does the source give for R116Q here?
**A.** with no effect

**Q.** How did the “effect of a mutation on the interaction” value turn out when R68Q was run?
**A.** with no effect

Variants of: B4
Conditions: with zbtb1_human ZBTB1, Q9Y2K1

**Q.** Which “effect of a mutation on the interaction” value does the source give for A142T here?
**A.** disrupting interaction strength

Variants of: B5
Conditions: with borg4_human CDC42EP4, Q9H3Q1

**Q.** Which “effect of a mutation on the interaction” value does the source give for R23H here?
**A.** with no effect

Variants of: B6
Conditions: with ats12_human ADAMTS12, P58397
Chain of ats12_human ADAMTS12, P58397 (P58397 whole entry): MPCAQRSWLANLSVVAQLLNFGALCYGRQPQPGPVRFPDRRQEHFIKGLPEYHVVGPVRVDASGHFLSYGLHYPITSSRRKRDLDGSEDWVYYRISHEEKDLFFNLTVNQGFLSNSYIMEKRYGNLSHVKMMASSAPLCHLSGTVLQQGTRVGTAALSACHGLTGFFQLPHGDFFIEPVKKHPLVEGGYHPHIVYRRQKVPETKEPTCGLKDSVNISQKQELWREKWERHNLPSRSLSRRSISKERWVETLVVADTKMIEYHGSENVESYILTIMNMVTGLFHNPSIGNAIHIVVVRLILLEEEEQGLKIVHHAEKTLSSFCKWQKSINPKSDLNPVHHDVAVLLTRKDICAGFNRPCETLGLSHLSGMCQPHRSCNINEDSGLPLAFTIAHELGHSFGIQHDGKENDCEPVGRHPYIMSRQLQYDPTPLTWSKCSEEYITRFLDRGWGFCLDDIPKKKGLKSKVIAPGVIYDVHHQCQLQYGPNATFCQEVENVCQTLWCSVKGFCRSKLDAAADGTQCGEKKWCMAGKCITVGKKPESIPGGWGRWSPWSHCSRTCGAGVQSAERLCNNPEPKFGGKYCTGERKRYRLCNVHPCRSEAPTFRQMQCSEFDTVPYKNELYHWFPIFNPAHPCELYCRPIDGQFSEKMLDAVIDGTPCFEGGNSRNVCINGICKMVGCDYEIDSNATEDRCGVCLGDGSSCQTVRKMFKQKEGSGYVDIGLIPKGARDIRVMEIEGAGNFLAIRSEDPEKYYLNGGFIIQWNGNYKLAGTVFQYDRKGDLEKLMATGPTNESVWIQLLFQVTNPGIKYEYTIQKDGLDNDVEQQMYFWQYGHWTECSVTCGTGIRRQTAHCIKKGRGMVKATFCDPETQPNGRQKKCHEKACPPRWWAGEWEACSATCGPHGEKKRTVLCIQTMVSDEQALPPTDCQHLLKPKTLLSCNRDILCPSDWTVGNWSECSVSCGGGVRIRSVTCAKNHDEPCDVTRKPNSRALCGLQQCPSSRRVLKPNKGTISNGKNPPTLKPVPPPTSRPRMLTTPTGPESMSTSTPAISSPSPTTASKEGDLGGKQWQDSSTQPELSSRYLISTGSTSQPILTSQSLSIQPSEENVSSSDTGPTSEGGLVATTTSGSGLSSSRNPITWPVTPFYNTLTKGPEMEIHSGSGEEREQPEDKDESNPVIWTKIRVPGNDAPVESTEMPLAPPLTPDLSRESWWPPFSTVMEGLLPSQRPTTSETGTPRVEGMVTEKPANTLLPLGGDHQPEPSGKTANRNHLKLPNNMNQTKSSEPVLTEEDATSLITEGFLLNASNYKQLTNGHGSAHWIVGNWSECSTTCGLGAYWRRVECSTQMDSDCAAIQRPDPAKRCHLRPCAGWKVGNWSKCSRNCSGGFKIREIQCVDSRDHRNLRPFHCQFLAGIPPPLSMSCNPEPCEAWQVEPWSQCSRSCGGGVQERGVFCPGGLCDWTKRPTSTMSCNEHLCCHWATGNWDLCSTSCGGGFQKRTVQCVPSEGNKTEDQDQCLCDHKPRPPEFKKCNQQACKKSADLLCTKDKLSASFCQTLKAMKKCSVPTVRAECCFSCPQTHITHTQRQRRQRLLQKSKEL

**Q.** For C138S, which “effect of a mutation on the interaction” value is on record?
**A.** disrupting interaction strength

Variants of: B6
Conditions: with cpsf5_human NUDT21, O43809
Chain of cpsf5_human NUDT21, O43809 (O43809 whole entry): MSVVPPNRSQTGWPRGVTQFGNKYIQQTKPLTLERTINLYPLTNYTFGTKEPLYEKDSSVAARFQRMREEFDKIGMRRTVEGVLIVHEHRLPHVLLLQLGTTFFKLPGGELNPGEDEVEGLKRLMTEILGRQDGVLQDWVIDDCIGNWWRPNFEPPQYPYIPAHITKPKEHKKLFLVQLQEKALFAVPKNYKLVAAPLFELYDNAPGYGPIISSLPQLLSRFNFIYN

**Q.** For C138S, which “effect of a mutation on the interaction” value is on record?
**A.** disrupting interaction strength

Variants of: B7
Conditions: with gstk1_human GSTK1, Q9Y2Q3

**Q.** How did the “effect of a mutation on the interaction” value turn out when R23H was run?
**A.** with no effect

Variants of: B8
Conditions: with sesd1_human SESTD1, Q86VW0

**Q.** How did the “effect of a mutation on the interaction” value turn out when A215T was run?
**A.** with no effect
